# B1: Aspergillus fumigatus NADase (AfNADase), wild type (enzyme)
# chain: LQHTEDSLFPARCWPDPCAGITFQNDTYVCGDPRLGPVVLPQKFPLNNELRTYARFGALCPAEFLDKWATDVAPNGTYIYPPANGFALDTEEQPILGNATLPVGMKLDRFGSEYGTFLAPLGAPYIERSLPPSNLNTFDGMYPYNYHVYQVTKEFVVGLGPIAPWFEQPGMGTQFVTYTNVLGLIDDGYLRRLDESEYDEKVEYSNPYTPGPNQ
# modifications: N-linked glycosylation sites (as observed in the wild-type structure 6YGE)
# How the values were obtained:
# [1] = test system: NC(=O)c1ccc[n+]([C@@H]2O[C@H](COP(=O)(O)OP(=O)(O)OC[C@H]3O[C@@H](n4cnc5c4ncn4ccnc54)[C@H](O)[C@@H]3O)[C@@H](O)[C@H]2O)c1; test: purified protein; conditions: 50 mM sodium acetate pH 5.5, 150 mM NaCl, 500 μM CaCl2, 25 °C, 10 ng enzyme
# Excerpt: fluorometric hydrolysis assay, Michaelis-Menten fit on AfNADase
# [2] = target: AfNADase^D219A/E220A (Aspergillus fumigatus) (UniProt Q4WL81); test: crystal structure
# SEC = target: the molecule itself; test: SEC
molecule,measurement,setting,value
AfNADase (Aspergillus fumigatus Af293),Km,[1],54.8 ± 15.3 µM
same,Vmax,[1],4570 µmol/min/mg
AfNADase^D219A/E220A (from UniProt Q4WL81) (enzyme),stoichiometry N,[2],2
B1,binding result,SEC,binds

# Reference: PMC10666276 (Biochemistry, 2023)
